Laboratory results from paper PMC7645262.

Molecular target: Bpa78-βarr1 with a 2xStrep tag at the C-terminus (bovine) (UniProt P17870)
Assay: cross-linking; Bpa78-βarr1-2xStrep in HEK293T cells irradiated with UV (365 nm) as intact cells, then isolated with Strep-Tactin XT (1 M NaCl, 1 M urea in the supernatant); product analysed by SDS-PAGE/blot, SEC (Superdex 200 Increase, 4°C, Buffer W), MALDI-TOF-MS and nano-HPLC/nano-ESI-Orbitrap-MS/MS

Substance: Bpa78-βarr1 with a 2xStrep tag at the C-terminus (from UniProt P17870 1-418) (natural protein)
- stoichiometry N: 2
